Measured values published in patent US20090304718A1 (Boehringer Ingelheim, published 2009).

B1: MFP5-DM1 (MFP5-SPP-DM1, disulfide-linked immunoconjugate) (other)
VH: QVQLQQSGAELARPGASVNLSCKASGYTFTNNGINWLKQRTGQGLEWIGEIYPRSTNTLYNEKFKGKATLTADRSSNTAYMELRSLTSEDSAVYFCARTLTAPFAFWGQGTLVTVSA
VL: QIVLTQSPAIMSASPGEKVTMTCSASSGVNFMHWYQQKSGTSPKRWIFDTSKLASGVPARFSGSGSGTSYSLTISSMEAEDAATYYCQQWSFNPPTFGGGTKLEIKR
B2: MFP5-SPDB-DM4 (other)
VH: B1 VH
VL: B1 VL
B3: murine monoclonal antibody MFP5 (antibody, mouse IgG2a, V domains shown)
VH: B1 VH
VL: B1 VL
notes: also called BIA 13; mAbFAP5
B4: MFP5-SMCC-DM1 (other)
VH: B1 VH
VL: B1 VL
B5: BIBH1-DM1 (protein, INN chains, looked up)
VH: QVQLVQSGAEVKKPGASVKVSCKTSRYTFTEYTIHWVRQAPGQRLEWIGGINPNNGIPNYNQKFKGRVTITVDTSASTAYMELSSLRSEDTAVYYCARRRIAYGYDEGHAMDYWGQGTLVTVSS
VL: DIVMTQSPDSLAVSLGERATINCKSSQSLLYSRNQKNYLAWYQQKPGQPPKLLIFWASTRESGVPDRFSGSGFGTDFTLTISSLQAEDVAVYYCQQYFSYPLTFGQGTKVEIK
modifications: DM1 maytansinoid conjugate

Tests used:
[1] = biological target: human FAP (fibroblast activation protein alpha) expressed on HT1080 clone v1.33 cells (human) (UniProt Q12884); assay: cell ELISA on ethanol-fixed HT1080 v1.33 cells expressing human FAP; rabbit anti-human-IgG-peroxidase, TMB, OD 450 nm
[2] = biological target: T1, human FAP (fibroblast activation protein alpha) expressed on HT1080 clone v1.33 cells (human, UniProt Q12884 1-760); assay: cell-based or functional assay
T1 sequence (looked up): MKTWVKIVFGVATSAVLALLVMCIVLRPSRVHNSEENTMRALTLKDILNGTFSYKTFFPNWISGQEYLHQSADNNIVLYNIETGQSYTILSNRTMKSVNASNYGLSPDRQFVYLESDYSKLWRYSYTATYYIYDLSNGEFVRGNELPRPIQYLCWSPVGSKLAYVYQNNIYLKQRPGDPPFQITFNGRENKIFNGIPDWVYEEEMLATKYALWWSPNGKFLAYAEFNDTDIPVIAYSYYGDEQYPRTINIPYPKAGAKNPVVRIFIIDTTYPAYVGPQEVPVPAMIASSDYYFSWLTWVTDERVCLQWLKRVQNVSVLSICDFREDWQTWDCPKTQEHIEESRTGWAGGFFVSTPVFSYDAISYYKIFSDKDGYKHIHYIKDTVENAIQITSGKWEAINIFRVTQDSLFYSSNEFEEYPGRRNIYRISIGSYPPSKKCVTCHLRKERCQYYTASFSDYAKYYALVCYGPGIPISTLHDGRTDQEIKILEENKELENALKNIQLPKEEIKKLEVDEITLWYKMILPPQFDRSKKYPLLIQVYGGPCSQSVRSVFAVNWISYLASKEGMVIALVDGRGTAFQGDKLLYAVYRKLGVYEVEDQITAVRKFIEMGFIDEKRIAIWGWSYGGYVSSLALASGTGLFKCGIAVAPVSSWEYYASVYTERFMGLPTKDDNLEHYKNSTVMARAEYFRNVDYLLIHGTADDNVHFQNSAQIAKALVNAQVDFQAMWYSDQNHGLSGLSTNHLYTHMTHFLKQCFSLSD

[3] = biological target: T2, murine FAP expressed on HT1080 clone 13.6 cells (mouse, UniProt P97321 1-761); assay: cell ELISA on ethanol-fixed HT1080 13.6 cells expressing murine FAP; goat anti-mouse-Ig-peroxidase, TMB, OD 450 nm
T2 construct: whole, on cells; also called mouse FAP
T2 sequence (looked up): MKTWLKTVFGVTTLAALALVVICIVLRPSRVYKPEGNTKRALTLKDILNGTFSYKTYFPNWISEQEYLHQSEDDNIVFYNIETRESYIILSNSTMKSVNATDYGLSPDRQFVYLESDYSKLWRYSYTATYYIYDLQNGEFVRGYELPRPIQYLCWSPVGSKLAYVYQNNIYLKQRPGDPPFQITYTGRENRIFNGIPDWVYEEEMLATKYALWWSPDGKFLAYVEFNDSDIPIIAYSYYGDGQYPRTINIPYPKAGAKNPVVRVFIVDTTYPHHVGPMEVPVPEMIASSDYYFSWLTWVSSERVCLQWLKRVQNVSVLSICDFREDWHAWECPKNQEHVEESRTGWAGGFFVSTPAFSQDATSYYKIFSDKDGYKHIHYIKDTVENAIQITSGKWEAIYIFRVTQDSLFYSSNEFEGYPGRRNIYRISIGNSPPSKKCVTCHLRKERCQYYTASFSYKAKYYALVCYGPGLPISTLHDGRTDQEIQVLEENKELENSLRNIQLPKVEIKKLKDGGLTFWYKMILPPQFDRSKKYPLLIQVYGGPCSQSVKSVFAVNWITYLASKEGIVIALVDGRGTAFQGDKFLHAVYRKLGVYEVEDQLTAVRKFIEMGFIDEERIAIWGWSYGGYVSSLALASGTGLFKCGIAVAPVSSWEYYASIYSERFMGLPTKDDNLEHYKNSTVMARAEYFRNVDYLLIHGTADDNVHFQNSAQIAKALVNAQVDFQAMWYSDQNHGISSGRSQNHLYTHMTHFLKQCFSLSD
Protocol: The binding of BIBH1 and MFP5 antibodies and the respective antibody conjugates BIBH1-DM1 and MFP5-DM1 to antigen positive and negative HT1080 cells is determined in a cell-ELISA assay. […] Stable clones are generated as described for HT1080 v1.33 and clones positive for murine FAP are screened with the murine FAP specific monoclonal antibody 3D11 (Niedermeyer et al., 2000). For the cell ELISA 100 μl of cell suspensions at various cell densities are seeded per well of a 96-well microliter plate and the cells are incubated overnight in an incubator (37° C., 5% CO2). On the next day, cells are fixed with 100% ethanol. Dilutions of the antibodies BIBH1 and MFP5 and of the conjugates BIBH1-DM1 and MFP5-DM1 are added in duplicates and incubated for two hours. After washing three times with PBS/Tween, diluted rabbit anti-human-IgG-peroxidase conjugate is added for detection of the BIBH1 antibodies and for detection of the MFP5 antibodies a diluted goat anti-mouse-Ig-peroxidase conjugate is added. After incubation for two hours at RT plates are washed again three times with PBS/Tween and bound anti-FAP-antibodies detected by addition of TMB staining solution. […] A: Binding to HT1080 v1.33 expressing human FAP. The binding affinity of the antibodies is retained after conjugation to DM1. [0114] […] Only the murine specific antibody MFP5 binds. [0115] C: Negative control.

| Molecule | EC50 (read off the curve) [1] [ng Ab/ml] | EC50, proliferation assay [2] [nM] | further results |
| --- | --- | --- | --- |
| humanized anti-FAP antibody BIBH1 (sibrotuzumab) | 8 | – | – |
| B1 | – | – | EC50 (concentration resulting in 50% cytotoxic effect), MTS cytotoxicity assay, 3 days [2]: ~0.04 nM |
| B2 | – | 0.029 | – |
| B3 | – | – | EC50 (read off the curve) [3]: ~6 ng Ab/ml |
| B4 | – | 0.022 | – |
| B5 | 10 | – | – |
